{"source": "paper doi:10.1101/2022.07.31.502215", "target": "SARS-CoV-2 main protease (Mpro) H172Y (SARS-CoV-2)", "data": [{"substance": "Dabcyl-KTSAVLQ↓SGFRKM-E(Edans)-NH2 FRET substrate (peptide)", "values": [{"measurement": "Michaelis constant Km, FRET-based cleavage assay (400 nM enzyme, substrate 10 to 320 μM, 20 mM HEPES, 120 mM NaCl, pH 7.0)", "value": 803, "unit": "μM"}]}]}
